Substrate in the data set: Nc1ncnc2c1ncn2[C@@H]1O[C@H](COP(=O)(O)OP(=O)(O)OP(=O)(O)O)[C@@H](O)[C@H]1O
The data set is described as follows: purified protein. The settings on record: microtubules; standard assay conditions; apparent Km from gliding velocity.

This note sets out measurements from article PMC3787135.

B1: kinesin-II (wild type heterotrimer KLP-11/KLP-20/KAP-1) (Caenorhabditis elegans) (protein)
chain 1: MVEIMKKSSKQETVKVIVRCRPLSSQEIANNYSKIVHMRPQRGQIELKNPKEQDEPSKDFTFDAIYDENSTQSDLYEETFRDLVDSVLNGYNATIFAYGQTGTGKTHTMEGKSSDPEQRGVIYKCIDHIFEHMAASHNQEYLVRASYLEIYQEELRDLLEAESNKKLEIKERPDGGVYVKDLTSKLTRTVGEIHEVMIRGNGHRSVGRTNMNEHSSRSHAIFIITVECSRIGEDGESHITVGRLNLVDLAGSERQSKTGATGERFKEATKINLSLSALGNVISALVDAKSAHIPYRDSKLTRLLQDSLGGNSKTVMVACIGPASYNFEETLGTLRYANRAKNIKNQPKINEDPKDALLREFQEEIEMLREQLKQRKTRSRDGATQSFYDAERAKLEDDIEAIQKDDSLIKHEKDRLIREIQEKHDLLEKERIEQARVAERIANIQSRLIVGSEEDGRLESRTKEQHAQLEKKRRELAEQKRREREMVEALERQEEDTVDLKQTFSDLRTEVEAKTKKLKKMLIKLRQARNEIRDVSGAYSDERQDLDQTIAEVSKELKLKLLIVENFIPRDVSERIKERAEWNEDSFEWNVNAFQSTSSNSSTPLNNTIEVNEDGVFTRSSGADSGVSVSGGNGTPATSQFLDKRLVATPGCRRPMSMCERMLVETAREQFGAQRRPPISGSGSFVEATIPEETIRFCGENVVVFSALERFVPEVTDSDPSTFSNSMMMSARRPSIENLTIDASKVLVPILNQSTMILKNSKNGQARNDTMPPNGSMRRSQN
chain 2: MEGAEKVKVVVRCRPISTTEKLQGHKIAVTCNDEEKAVNIKSLSQEDPPRTFYFDAVFSPNTDQMTVYNVAARPIVENVLKGYNGTIFAYGQTGTGKTFTMAGDLEPVEMRGIIPNSFAHIFDHIAKCQHDTTFLVRVSYLEIYNEEIRDLLSKDHNGNLEIKERPDVGVYVRNLSNPTVENASKMQALMEFGSKNRKVGATAMNLESSRSHAMFTVTIESCRNGLVTQGKLQLVDLAGSERQSKTGAQGERLKEAAKINLSLSTLGNVISSLVDGKSTHIPYRNSKLTRLLQDSLGGNSKTVMIANVGPATYNYDETLSTLRYANRAKNIQNVAKINEDPKDAQLRKFQLEIEALRKILDEENPGDDENQEEAWEAKMQEREVEMEKKRKILEERVNSAVNDEETHRLVKEMMENEAELKKARSEHEKLRSKLEKIEKKLIVGGENLLEKVEEQAKLLEVNNKELEQSKFQEAHLRTQLEERTAVKVEIEERYSSLQEEAFVKSKKIKKVSNELKDARAELKDLEEDHQRQVEAMLDDIRQLRKELLLNIAIIDEYIPVEHVELIEKYVSWSEEHGDWQLKAIAYTGNNMRASAPPAKKEFSNNNQTVPMYYSYRADLGASTAEHRPRTSSKKHRASIRLQQLLT
With B1, the Vmax stood at 15.6 µM/min.
